Measured values taken from paper PMC7610992 (Journal of molecular biology, 2006).

B1: RNase E (628-843) (domain or fragment, E. coli, UniProt P21513 628-843, looked up)
chain: ERTEGSDNREENRRNRRQAQQQTAETRESRQQAEVTEKARTADEQQAPRRERSRRRNDDKRQAQQEAKALNVEEQSVQETEQEERVRPVQPRRKQRQLNQKVRYEQSVAEEAVVAPVVEETVAAEPIVQEAPAPRTELVKVPLPVVAQTAPEQQEENNADNRDNGGMPRRSRRSPRHLRVSGQRRRRYRDERYPTQSPMPLTVACASPELASGKVW

Assays:
[1] = target: T1, RNA helicase B (RhlB), full-length helicase (E. coli, UniProt P0A8J8 1-421); assay: limited proteolysis with native gel and mass spectrometry
T1 sequence (looked up): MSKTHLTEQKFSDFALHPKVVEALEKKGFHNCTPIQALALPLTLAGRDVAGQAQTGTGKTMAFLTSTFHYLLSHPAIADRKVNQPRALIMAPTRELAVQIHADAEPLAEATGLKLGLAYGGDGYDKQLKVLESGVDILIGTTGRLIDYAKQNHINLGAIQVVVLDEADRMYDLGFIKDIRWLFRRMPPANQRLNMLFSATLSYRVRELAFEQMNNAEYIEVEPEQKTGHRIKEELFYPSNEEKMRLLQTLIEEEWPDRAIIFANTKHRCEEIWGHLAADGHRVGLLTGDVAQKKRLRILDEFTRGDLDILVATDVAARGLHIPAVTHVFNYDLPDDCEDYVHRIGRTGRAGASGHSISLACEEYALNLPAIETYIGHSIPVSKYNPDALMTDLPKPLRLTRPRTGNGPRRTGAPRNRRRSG

RNase E (628-843) = target: B1; assay: SEC + cross-linking + native MS

B1
binding result [1]: binds

B2: RhlB-CTD, carboxy-terminal domain of RhlB helicase (domain or fragment, E. coli)
chain: MRIKEELFYPSNEEKMRLLQTLIEEEWPDRAIIFANTKHRCEEIWGHLAADGHRVGLLTGDVAQKKRLRILDEFTRGDLDILVATDVAARGLHIPAVTHVFNYDLPDDCEDYVHRIGRTGRAGASGHSISLACEEYALNLPAIETYIGHSIPVSKYNPDALMTDLPKPLRLTRPRTGNGPRRTGAPRNRRRSG
stoichiometry N (RNase E (628-843)): 1 RhlB-CTD per RNase E (628-843)
